Source: publication PMC9386465
Like-named read-outs stand apart in the source and are kept apart here.

T1: ErmS (TlrA) rRNA adenine-N6 dimethyltransferase (Streptomyces fradiae, UniProt P45439 1-319)
T1 sequence: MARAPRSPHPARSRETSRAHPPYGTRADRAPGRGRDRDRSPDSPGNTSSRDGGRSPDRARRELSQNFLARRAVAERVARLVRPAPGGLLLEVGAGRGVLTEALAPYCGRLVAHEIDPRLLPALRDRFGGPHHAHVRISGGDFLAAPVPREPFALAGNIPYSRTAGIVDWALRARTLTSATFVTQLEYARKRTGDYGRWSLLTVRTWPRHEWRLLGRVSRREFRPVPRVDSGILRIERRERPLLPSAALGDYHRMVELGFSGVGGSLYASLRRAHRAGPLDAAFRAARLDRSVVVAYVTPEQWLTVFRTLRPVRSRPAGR


How the values were obtained:
[1] = biological target: T1, ErmS (TlrA) rRNA adenine-N6 …; test: stopped-flow fluorescence
[2] = biological target: T1, ErmS (TlrA) rRNA adenine-N6 …; test: stopped-flow fluorescence; remark: listed apart in the source

Row | Binder | binding result [1] | binding result [2]
1 | GGCAAGACGGAAAGACCCCUAUCUGCC (structured_RNA, 2-aminopurine replaces A2058 (nt 11)) [2Ap2058] | binds | –
2 | GGCAAGACGGAAAGACCCCUAUCUGCC (structured_RNA, 2-aminopurine replaces A2054 (nt 7)) [2Ap2054] | – | binds
